Reference: paper PMC2815779, “Structure and Kinetic Investigation of Streptococcus pyogenes Family GH38 α-Mannosidase” (PLoS ONE, 2010)

Tests used:
purified protein [1] = substrate: Cc1cc(=O)oc2cc(O[C@H]3O[C@H](CO)[C@@H](O)[C@H](O)[C@@H]3O)ccc12; assay: purified protein; assay type: biochemical, Streptococcus pyogenes; conditions: Zn2+
purified protein [2] = substrate: OC[C@H]1O[C@H](O[C@H]2[C@H](O)[C@@H](CO)OC(O)[C@H]2O)[C@@H](O)[C@@H](O)[C@@H]1O; assay: purified protein; assay type: biochemical, Streptococcus pyogenes; conditions: Zn2+

B1: SpGH38 (Spy1604), family GH38 α-mannosidase (Streptococcus pyogenes serotype M1) (protein)
chain: MATKKVHIISHSHWDREWYMAYEQHHMRLINLIDDLLEVFQTDPDFHSFHLDGQTIILDDYLKVRPEREPEIRQAIASGKLRIGPFYILQDDFLTSSESNVRNMLIGKEDCDRWGASVPLGYFPDTFGNMGQTPQLMLKAGLQAAAFGRGIRPTGFNNQVDTSEKYSSQFSEISWQGPDNSRILGLLFANWYSNGNEIPTTEAEARLFWDKKLADAERFASTKHLLMMNGCDHQPVQLDVTKAIALANQLYPDYEFVHSCFEDYLADLADDLPENLSTVQGEITSQETDGWYTLANTASARIYLKQANTRVSRQLENITEPLAAMAYEVTSTYPHDQLRYAWKTLMQNHPHDSICGCSVDSVHREMMTRFEKAYEVGHYLAKEAAKQIADAIDTRDFPMDSQPFVLFNTSGHSKTSVAELSLTWKKYHFGQRFPKEVYQEAQEYLARLSQSFQIIDTSGQVRPEAEILGTSIAFDYDLPKRSFREPYFAIKVRLRLPITLPAMSWKTLALKLGNETTPSETVSLYDDSNQCLENGFLKVMIQTDGRLTITDKQSGLIYQDLLRFEDCGDIGNEYISRQPNHDQPFYADQGTIKLNIISNTAQVAELEIQQTFAIPISADKLLQAEMEAVIDITERQARRSQEKAELTLTTLIRMEKNNPRLQFTTRFDNQMTNHRLRVLFPTHLKTDHHLADSIFETVKRPNHPDATFWKNPSNPQHQECFVSLFDGENGVTIGNYGLNEYEILPDTNTIAITLLRSVGEMGDWGYFPTPEAQCLGKHSLSYSFESITKQTQFASYWRAQEGQVPVITTQTNQHEGTLAAEYSYLTGTNDQVALTAFKRRLADNALITRSYNLSNDKTCDFSLSLPNYNAKVTNLLEKDSKQSTPSQLGKAEILTLAWKKQ
notes: full length, residues 1-901, N-terminal His6-tag
Km (purified protein [1]): 3.6 ± 1.0 mM
Km (purified protein [2]): 27 ± 0.75 mM
